# Experimental data as given in patent US20080293626A1, “Pigment epithelium-derived factor as a therapeutic agent for vascular leakage” (The Johns Hopkins University, priority 2003, published 2008).
# Entries after “also recorded” stand apart in the source; their conditions may differ.
# Assays:
# [1] = tested on: VEGF-induced retinal vascular permeability; assay: Fluorescein angiography after intravitreal co-injection with VEGF164; format: in vivo, mouse (C57BL/6J); settings: mouse eye, co-injected intravitreally with 12.6 ng VEGF164 at 20-fold molar excess; 20 h after injection; qualitative
# Description: (§1) Intravitreal injection to assess bioactivity on vascular permeability. C57BL/6J mice, 6-8 weeks of age, were cared for in accordance with the Association for Research in Vision and Opthalmology Statement for the Use of Animals in Ophthalmic and Vision Research. For anesthesia, each received intramuscularly 20 mg/kg ketamine, 20 mg/kg xylazine and 800 mg/kg urethane in 0.3-0.4 ml of phosphate buffered saline (PBS, 1.06 mM KH2PO4, 0.15 M NaCl and 3.00 mM Na2HPO4, pH 7.4). Under 10× magnification, 1 μl of murine VEGF164 (12.6 ng/μl in PBS; R&D Systems, Minneapolis, Minn.) was delivered through a 20° beveled glass pipette, with a tip diameter of 13-20 μm. The contralateral eye received an equal volume of PBS alone or PBS containing 12.6 ng VEGF164, and a 20-fold molar excess of PEDF (232 ng), ACT (278 ng), HSP47 (278 ng), PEDFpep (28.1 ng), ACTpep (29.7 ng), or CHIMERApep (28.2 ng).
# Fluorescein angiograghy. Twenty hours after intravitreal injections, each pupil was dilated with one drop of 1% atropine sulfate. After intraperitoneal injection of 0.1 ml of 25% fluorescein, successive retina photographs were taken with a Kowa Genesis camera. The first photograph was taken within 20 seconds of the intraperitoneal fluorescein injection. Time elapsed between the alternating right and left eye retinal photographs averages 10 seconds. Fluorescein leakage manifests as indistinct vascular borders progressing to diffusely hazy fluorescence.
# [2] = tested on: VEGF-induced retinal vascular permeability; assay: Evans blue assay after intravitreal co-injection with VEGF164; format: in vivo, mouse (C57BL/6J); settings: mouse eye, co-injected intravitreally with VEGF164 at 20-fold molar excess; for inhibition of VEGF-induced retinal vascular permeability (Evans blue-albumin): 24 h, VEGF-induced increase = 100%, mean ±SE
# Description: as §1
# Evans Blue assay. We used a modification of the method described by Qaum et al.^44 Briefly, each mouse received intravitreal injections of proteins or peptides, and intrajugular injection of Evans blue^44. After 2 hours, 200 μl blood was taken and assayed for Evans blue. The retina was extruded and dissected free from any vitreous or adherent retinal pigment epithelium.
# To assess the Evans blue-albumin concentration, the optical density of the retinal extract and plasma samples were measured at 620 nm and 740 nm. The retinal vasopermeability was calculated as the quantity of retinal Evans blue normalized to retinal dry weight, plasma Evans blue concentration, and circulation time by using the formula as described^32,44. Since all animals in this report had 1 eye injected with VEGF alone, the retinal permeability in the VEGF injected eyes was normalized to the VEGF injected eye in the set of animals where 1 eye received PBS. The VEGF-induced increase in permeability was taken to be 100%.
# [3] = tested on: VEGF164-stimulated bovine retinal capillary endothelial cell migration; settings: read-out: IC50, inhibition of VEGF-stimulated endothelial cell migration; BRCEC, VEGF164-stimulated, 8 hours at 37° C.
# Description: BRCEC migration assay. Bovine retinal capillary endothelial cells (BRCEC) were isolated and cultured as described 45. […] Cells, between the fifth and ninth passage, were starved overnight in MEM with D-Val and 2% fetal bovine serum. Polycarbonate filters (10 μm pore-size, PVPF; Osmonics Inc., Minnetonka, Minn.) were coated with 100 μg/ml collagen. Quadruplicates with test samples in MEM D-Val (28 μl), and 10^4 cells in MEM D-Val (50 μl) were placed in the lower and upper wells, respectively, of the microchemotaxis chamber (NeuroProbe, Gaithersburg, Md.). After incubating 8 hours at 37° C., the non-migrated cells on the upper surface of the filter were removed, and the filters were stained with Harris' hematoxylin. For each of the test samples, one 400× field per quadrant of each of the quadruplicates was counted. From the total cell number in the 4 fields, the mean and standard error of the quadruplicate wells were calculated. Baseline migration equaled the number of migrated cells with MEM D-Val without any added proteins or peptides. The difference between baseline and the number of migrated cells with VEGF added equals maximal total migration.
IC50 [3] [nM],Molecule,effect on VEGF-induced fluorescein leakage / vascular permeability (fluorescein angiography) [1],inhibition of VEGF-induced retinal vascular permeability (Evans blue-albumin) [2] [%],effect on VEGF-induced vascular permeability by Evans blue assay ([2]; qualitative statement)
,"HSP47: heat shock protein 47, collagen-specific chaperone protein from the serpin family, control protein (protein, UniProt P50454 19-418, looked up) Serpin H1: AEVKKPAAAAAPGTAEKLSPKAATLAERSAGLAFSLYQAMAKDQAVENILVSPVVVASSLGLVSLGGKATTASQAKAVLSAEQLRDEEVHAGLGELLRSLSNSTARNVTWKLGSRLYGPSSVSFADDFVRSSKQHYNCEHSKINFRDKRSALQSINEWAAQTTDGKLPEVTKDVERTDGALLVNAMFFKPHWDEKFHHKMVDNRGFMVTRSYTVGVMMMHRTGLYNYYDDEKEKLQIVEMPLAHKLSSLIILMPHHVEPLERLEKLLTKEQLKIWMGKMQKKAVAISLPKGVVEVTHDLQKHLAGLGLTEAIDKNKADLSRMSGKKDLYLASVFHATAFELDTDGNPFDQDIYGREELRSPKLFYADHPFIFLVRDTQSGSLLFIGRLVRPKGDKMRDEL",no effect,19.4±22.3,
,"ACT: α1-antichymotrypsin, a classical serpin used as control protein (protein, UniProt P01011 24-423, looked up) Alpha-1-antichymotrypsin: HPNSPLDEENLTQENQDRGTHVDLGLASANVDFAFSLYKQLVLKAPDKNVIFSPLSISTALAFLSLGAHNTTLTEILKGLKFNLTETSEAEIHQSFQHLLRTLNQSSDELQLSMGNAMFVKEQLSLLDRFTEDAKRLYGSEAFATDFQDSAAAKKLINDYVKNGTRGKITDLIKDLDSQTMMVLVNYIFFKAKWEMPFDPQDTHQSRFYLSKKKWVMVPMMSLHHLTIPYFRDEELSCTVVELKYTGNASALFILPDQDKMEEVEAMLLPETLKRWRDSLEFREIGELYLPKFSISRDYNLNDILLQLGIEEAFTSKADLSGITGARNLAVSQVVHKAVLDVFEEGTEASAATAVKITLLSALVETRTIVRFNRPFLMIIVPTDTQNIFFMSKVTNPKQA",no effect,3.4±18.2,
0.5,"PEDF: Recombinant human pigment epithelium-derived factor, 418-amino acid 50-kDa glycoprotein, produced in 293 cells (SEQ ID NO: 1) (protein, listed as Homo sapiens, glycosylated) MQALVLLLCIGALLGHSSCQNPASPPEEGSPDPDSTGALVEEEDPFFKVPVNKLAAAVSNFGYDLYRVRSSMSPTTNVLLSPLSVATALSALSLGAEQRTESIIHRALYYDLISSPDIHGTYKELLDTVTAPQKNLKSASRIVFEKKLRIKSSFVAPLEKSYGTRPRVLTGNPRLDLQEINNWVQAQMKGKLARSTKEIPDELSLLLLGVAHFKGQWVTKFDSRKTSLEDFYLDEERTVRVPMMSDPKAVLRYGLDSDLSCKIAQLPLTGSMSLIFFLPLKVTQNLTLIEESLTSEFIHDIDRELKTVQAVLTVPKLKLSYEGEVTKSLQEMKLQSLFDSPDFSKITGKPIKLTQVEHRAGFEWNEDGAGTTPSPGLQPAHLTFPLDYHLNQPFIFVLRDTDTGALLFIGKILDPRGP",not observed; also recorded: inhibits,95.6±21.2,obliterated
